Experimental data published in patent US20140044713A1 (KONINKLIJKE NEDERLANDSE AKADEMIE VAN WETENSCHAPPEN, published 2014).

B1: Frz6 (endogenous, LS174T cells) (receptor, human, UniProt O60353 19-706, looked up)
chain: HSLFTCEPITVPRCMKMAYNMTFFPNLMGHYDQSIAAVEMEHFLPLANLECSPNIETFLCKAFVPTCIEQIHVVPPCRKLCEKVYSDCKKLIDTFGIRWPEELECDRLQYCDETVPVTFDPHTEFLGPQKKTEQVQRDIGFWCPRHLKTSGGQGYKFLGIDQCAPPCPNMYFKSDELEFAKSFIGTVSIFCLCATLFTFLTFLIDVRRFRYPERPIIYYSVCYSIVSLMYFIGFLLGDSTACNKADEKLELGDTVVLGSQNKACTVLFMLLYFFTMAGTVWWVILTITWFLAAGRKWSCEAIEQKAVWFHAVAWGTPGFLTVMLLAMNKVEGDNISGVCFVGLYDLDASRYFVLLPLCLCVFVGLSLLLAGIISLNHVRQVIQHDGRNQEKLKKFMIRIGVFSGLYLVPLVTLLGCYVYEQVNRITWEITWVSDHCRQYHIPCPYQAKAKARPELALFMIKYLMTLIVGISAVFWVGSKKTCTEWAGFFKRNRKRDPISESRRVLQESCEFFLKHNSKVKHKKKHYKPSSHKLKVISKSMGTSTGATANHGTSAVAITSHDYLGQETLTEIQTSPETSMREVKADGASTPRLREQDCGEPASPAASISRLSGEQVDGKGQAGSVSESARSEGRISPKSDITDTGLAQSNNLQVPSSSEPSSLKGSTSLLVHPVSGVRKEQGGGCHSDT
notes: whole, on cells

Columns and labels:
[1] = target: T1, FLAG/HA-tagged Lgr4 (human, UniProt Q9BXB1 25-951); experiment: TAP (anti-FLAG, anti-HA) + mass spectrometry, bait stably expressed in LS174T cells, Exp 2
T1 construct: whole, on cells; also called Lgr4 bait; FH-tagged human Lgr4; not shown: FLAG/HA double tag
Method: (§1) Left panel (Exps 1-7): HEK293T cells were transiently transfected, and LS174T cells were stably, transfected with the indicated tagged proteins. Right panel (Exps 8-9): HEK293T cells were incubated with the indicated tagged soluble proteins at 1 μg/ml. Sequential immunoprecipitation was performed by anti-FLAG and anti-HA antibodies and the associated complexes were analysed by mass spectrometry. Number of assigned spectra, number of unique peptides and the MASCOT Protein Score are given for selected identified proteins.

[2] = target: T2, Lgr5-exo-Fc (leucine-rich-repeat exodomain of Lgr5, amino acids 1 to 546, human IgG-Fc fusion protein) (human, UniProt O75473 22-546); experiment: SPR array imaging (IBIS MX96), RSpo-1-FH captured on anti-Flag spots of decreasing density, 1:1 model, extrapolated to Rmax=0
T2 construct: range 1-546; also called LGR5-Fc; huLGR5-Fc; not shown: human IgG-Fc
T2 sequence (looked up): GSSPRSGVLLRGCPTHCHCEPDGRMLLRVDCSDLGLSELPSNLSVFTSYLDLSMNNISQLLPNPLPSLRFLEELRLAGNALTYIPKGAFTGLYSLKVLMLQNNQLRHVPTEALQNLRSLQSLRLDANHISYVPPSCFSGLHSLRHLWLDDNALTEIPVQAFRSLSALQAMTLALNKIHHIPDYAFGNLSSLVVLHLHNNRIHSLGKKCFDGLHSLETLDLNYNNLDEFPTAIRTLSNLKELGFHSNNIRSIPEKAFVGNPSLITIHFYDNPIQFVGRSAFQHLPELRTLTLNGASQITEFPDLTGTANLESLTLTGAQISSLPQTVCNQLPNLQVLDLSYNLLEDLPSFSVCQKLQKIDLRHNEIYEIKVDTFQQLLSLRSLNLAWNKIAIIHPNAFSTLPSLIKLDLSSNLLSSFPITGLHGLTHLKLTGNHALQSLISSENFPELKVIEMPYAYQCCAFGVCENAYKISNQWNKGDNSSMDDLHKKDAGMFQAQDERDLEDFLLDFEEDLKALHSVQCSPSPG
Excerpt: FIG. 15: Rspondin1-Lgr5 interaction KD determination by Surface Plasmon Resonance array imaging. […] In IBIS-SPRint software (version 2) an exponential fitting routine y=a*ebx was used for extrapolating the values of KD and kd at Rmax=0 (arrows).
Method: IBIS-SPRinT 2.0. An array of anti-Flag spots with decreasing densities was printed on a preactivated sensor surface (IBIS Technologies, Enschede, the Netherlands) using a continuous flow microspotter (CFM) (Wasatch Microfluidics, Utah, US).

[3] = target: T3, LRP5 (endogenous) (human, UniProt O75197 32-1615); experiment: TAP (anti-FLAG, anti-HA) + mass spectrometry, 293T cells incubated with the soluble tagged bait, Exp 9
T3 construct: whole, on cells
T3 sequence (O75197 32-1615): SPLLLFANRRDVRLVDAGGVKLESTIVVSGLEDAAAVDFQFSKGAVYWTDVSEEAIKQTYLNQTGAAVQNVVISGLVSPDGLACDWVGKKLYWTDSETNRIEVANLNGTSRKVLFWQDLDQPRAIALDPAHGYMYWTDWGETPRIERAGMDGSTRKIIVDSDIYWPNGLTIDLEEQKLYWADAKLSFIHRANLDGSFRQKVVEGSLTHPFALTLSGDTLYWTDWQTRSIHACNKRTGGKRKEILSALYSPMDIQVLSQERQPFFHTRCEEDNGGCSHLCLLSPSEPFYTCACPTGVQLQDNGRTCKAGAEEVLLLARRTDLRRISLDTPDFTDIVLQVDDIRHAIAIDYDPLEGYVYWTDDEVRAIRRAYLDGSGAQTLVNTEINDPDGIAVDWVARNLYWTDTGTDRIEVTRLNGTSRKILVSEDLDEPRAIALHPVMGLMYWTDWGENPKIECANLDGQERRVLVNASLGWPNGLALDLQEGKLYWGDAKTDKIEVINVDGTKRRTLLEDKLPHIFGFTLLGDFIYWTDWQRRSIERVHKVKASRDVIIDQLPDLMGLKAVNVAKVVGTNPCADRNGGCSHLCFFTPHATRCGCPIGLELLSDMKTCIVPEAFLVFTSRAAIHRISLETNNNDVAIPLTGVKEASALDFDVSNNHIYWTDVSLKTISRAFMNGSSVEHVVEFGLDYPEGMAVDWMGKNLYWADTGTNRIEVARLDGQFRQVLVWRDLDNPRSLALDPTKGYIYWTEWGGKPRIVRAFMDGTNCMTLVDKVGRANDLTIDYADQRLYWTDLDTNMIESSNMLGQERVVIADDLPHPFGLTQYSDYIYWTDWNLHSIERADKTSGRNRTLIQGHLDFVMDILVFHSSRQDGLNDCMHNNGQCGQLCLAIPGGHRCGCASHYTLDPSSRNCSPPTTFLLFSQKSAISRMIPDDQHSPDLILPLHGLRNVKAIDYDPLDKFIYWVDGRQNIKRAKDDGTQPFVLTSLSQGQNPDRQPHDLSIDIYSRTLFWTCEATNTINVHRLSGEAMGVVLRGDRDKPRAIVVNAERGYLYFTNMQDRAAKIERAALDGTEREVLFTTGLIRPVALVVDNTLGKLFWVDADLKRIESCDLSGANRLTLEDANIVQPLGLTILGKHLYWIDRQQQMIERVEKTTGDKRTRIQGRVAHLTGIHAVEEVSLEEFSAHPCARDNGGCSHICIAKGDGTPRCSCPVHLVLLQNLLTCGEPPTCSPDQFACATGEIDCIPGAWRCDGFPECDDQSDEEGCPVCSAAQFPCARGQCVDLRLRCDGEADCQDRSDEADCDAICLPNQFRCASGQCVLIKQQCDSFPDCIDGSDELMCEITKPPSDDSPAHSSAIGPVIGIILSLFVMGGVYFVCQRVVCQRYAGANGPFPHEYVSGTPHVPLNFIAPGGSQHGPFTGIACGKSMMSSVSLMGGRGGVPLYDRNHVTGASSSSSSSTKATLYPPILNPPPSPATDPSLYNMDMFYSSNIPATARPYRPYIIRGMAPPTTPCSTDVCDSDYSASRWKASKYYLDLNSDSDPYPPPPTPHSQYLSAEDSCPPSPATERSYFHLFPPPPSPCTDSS
Method: as §1

[4] = target: T4, LRP6 (endogenous) (human, UniProt O75581 20-1613); experiment: as above
T4 construct: whole, on cells
T4 sequence (O75581 20-1613): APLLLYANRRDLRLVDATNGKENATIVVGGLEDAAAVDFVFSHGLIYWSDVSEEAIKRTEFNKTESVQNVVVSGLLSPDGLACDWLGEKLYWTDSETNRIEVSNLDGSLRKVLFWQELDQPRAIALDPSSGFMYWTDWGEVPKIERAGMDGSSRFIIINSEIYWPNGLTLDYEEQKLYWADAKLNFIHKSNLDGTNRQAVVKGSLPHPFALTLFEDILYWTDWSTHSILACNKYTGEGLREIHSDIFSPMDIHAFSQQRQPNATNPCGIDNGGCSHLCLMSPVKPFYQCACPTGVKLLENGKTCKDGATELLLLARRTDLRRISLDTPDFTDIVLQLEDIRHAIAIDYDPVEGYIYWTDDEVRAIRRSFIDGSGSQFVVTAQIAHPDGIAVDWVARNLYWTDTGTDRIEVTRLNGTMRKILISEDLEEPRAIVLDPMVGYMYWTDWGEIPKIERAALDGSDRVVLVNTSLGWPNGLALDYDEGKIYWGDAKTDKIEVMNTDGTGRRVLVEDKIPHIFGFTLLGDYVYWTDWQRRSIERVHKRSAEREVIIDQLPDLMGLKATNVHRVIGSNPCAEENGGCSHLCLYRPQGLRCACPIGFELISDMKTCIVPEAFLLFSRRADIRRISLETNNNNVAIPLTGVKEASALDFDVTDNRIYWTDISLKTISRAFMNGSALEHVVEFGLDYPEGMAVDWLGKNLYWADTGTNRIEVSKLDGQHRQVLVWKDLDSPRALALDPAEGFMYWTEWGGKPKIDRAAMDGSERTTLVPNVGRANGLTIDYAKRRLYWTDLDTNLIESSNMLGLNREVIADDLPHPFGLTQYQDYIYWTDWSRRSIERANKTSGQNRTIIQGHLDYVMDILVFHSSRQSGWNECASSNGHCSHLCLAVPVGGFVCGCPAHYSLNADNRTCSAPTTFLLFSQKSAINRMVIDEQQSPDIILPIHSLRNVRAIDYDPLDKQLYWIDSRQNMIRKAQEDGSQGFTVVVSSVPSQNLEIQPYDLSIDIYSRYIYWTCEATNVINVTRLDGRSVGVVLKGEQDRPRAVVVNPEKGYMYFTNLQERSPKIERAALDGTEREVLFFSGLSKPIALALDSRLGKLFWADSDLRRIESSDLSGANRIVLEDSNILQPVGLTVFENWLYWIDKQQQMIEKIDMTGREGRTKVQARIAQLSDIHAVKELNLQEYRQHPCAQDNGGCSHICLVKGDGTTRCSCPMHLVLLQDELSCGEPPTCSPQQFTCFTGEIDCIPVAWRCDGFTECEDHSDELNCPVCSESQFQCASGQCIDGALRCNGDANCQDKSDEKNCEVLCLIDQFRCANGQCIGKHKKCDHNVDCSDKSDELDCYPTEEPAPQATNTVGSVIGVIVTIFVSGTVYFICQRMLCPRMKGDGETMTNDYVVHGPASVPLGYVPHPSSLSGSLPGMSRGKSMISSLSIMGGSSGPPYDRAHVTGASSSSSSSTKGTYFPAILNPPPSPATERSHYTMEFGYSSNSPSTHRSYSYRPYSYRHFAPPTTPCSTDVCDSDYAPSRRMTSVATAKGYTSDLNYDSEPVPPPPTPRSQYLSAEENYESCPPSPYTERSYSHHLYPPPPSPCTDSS
Method: as §1

[5] = target: T2, Lgr5-exo-Fc (leucine-rich-repeat …); experiment: SPR array imaging (IBIS MX96), Rspo1-FH captured on anti-FLAG, LGR5-Fc at 45, 23 and 11 nM, 1:1 discrete interaction model
Excerpt: This allowed us to perform a binding experiment using Surface Plasmon Resonance array imaging.

[6] = target: B1; experiment: TAP (anti-FLAG, anti-HA) + mass spectrometry, bait stably expressed in LS174T cells, Exp 7
Method: as §1

[7] = target: T5, Frz7 (endogenous, LS174T cells) (human, UniProt O75084 33-574); experiment: as above
T5 construct: whole, on cells
Method: as §1

[8] = target: T6, Rspo1-Fc fusion protein (Homo sapiens (Human), UniProt Q2MKA7 21-263, limits assumed); experiment: HEK293T cells transfected with the tagged Lgr, incubated with Rspo1-Fc, protein G immunoprecipitation, anti-FLAG Western blot
T6 construct: also called Rspondin1 IgFc fusion protein; not shown: Fc (IgFc) part
Excerpt: FIG. 7A: Rspondin1 binds to Lgr4, Lgr5 and Lgr6. […] Bottom: Input of tagged proteins.

Binder: B1
- binding result [1]: no binding

B2: double (FLAG-HA)-tagged version of human Rspo-1 (Rspo1-FH) (ligand)
chain: SRGIKGKRQRRISAEGSQACAKGCELCSEVNGCLKCSPKLFILLERNDIRQVGVCLPSCPPGYFDARNPDMNKCIKCKIEHCEACFSHNFCTKCKEGLYLHKGRCYPACPEGSSAANGTMECSSPAQCEMSEWSPWGPCSKKQQLCGFRRGSEERTRRVLHAPVGDHAACSDTKETRRCTVRRVPCPEGQKRRKGGQGRRENANRNLARKESKEAGAGSRRRKGQQQQQQQGTVGPLTSAGPA
notes: Used as HEK293T conditioned medium; also called huRSPO1-FH; not shown: FLAG-HA double tag
- Kd [2]: 3.07 nM
- koff [2]: 0.000155 s⁻¹
- kon [2]: 50400 M⁻¹ s⁻¹
- binding result [3]: no binding (tested: 1 µg/ml)
- binding result [4]: no binding (tested: 1 µg/ml)
- Kd [5]: ~3 nM

B3: tagged Frizzled5 (Frz5) (receptor, UniProt Q13467 27-585, looked up)
chain: ASKAPVCQEITVPMCRGIGYNLTHMPNQFNHDTQDEAGLEVHQFWPLVEIQCSPDLRFFLCSMYTPICLPDYHKPLPPCRSVCERAKAGCSPLMRQYGFAWPERMSCDRLPVLGRDAEVLCMDYNRSEATTAPPRPFPAKPTLPGPPGAPASGGECPAGGPFVCKCREPFVPILKESHPLYNKVRTGQVPNCAVPCYQPSFSADERTFATFWIGLWSVLCFISTSTTVATFLIDMERFRYPERPIIFLSACYLCVSLGFLVRLVVGHASVACSREHNHIHYETTGPALCTIVFLLVYFFGMASSIWWVILSLTWFLAAGMKWGNEAIAGYAQYFHLAAWLIPSVKSITALALSSVDGDPVAGICYVGNQNLNSLRGFVLGPLVLYLLVGTLFLLAGFVSLFRIRSVIKQGGTKTDKLEKLMIRIGIFTLLYTVPASIVVACYLYEQHYRESWEAALTCACPGHDTGQPRAKPEYWVLMLKYFMCLVVGITSGVWIWSGKTVESWRRFTSRCCCRPRRGHKSGGAMAAGDYPEASAALTGRTGPPGPAATYHKQVSLSHV
notes: whole, on cells; also called double-tagged Frizzled5; Frz5 bait; not shown: FLAG/HA tag
- binding result [6]: no binding
- binding result [7]: no binding

B4: Lgr1 (receptor, not shown: small tags and cut ends)
chain: CHHRICHCSNRVFLCQESKVTEIPSDLPRNAIELRFVLTKLRVIQKGAFSGFGDLEKIEISQNDVLEVIEADVFSNLPKLHEIRIEKANNLLYINPEAFQNLPNLQYLLISNTGIKHLPDVHKIHSLQKVLLDIQDNINIHTIERNSFVGLSFESVILWLNKNGIQEIHNCAFNGTQLDELNLSDNNNLEELPNDVFHGASGPVILDISRTRIHSLPSYGLENLKKLRARSTYNLKKLPTLEKLVALMEASLTYPSHCCAFANWRRQISELHPICNKSILRQEVDYMTQARGQRSSLAEDNESSYSRGFDMTYTEFDYDLCNEVVDVTCSPKPDAFNPCEDIMGYNILRVLIWFISILAITGNIIVLVILTTSQYKLTVPRFLMCNLAFADLCIGIYLLLIASVDIHTKSQYHNYAIDWQTGAGCDAAGFFTVFASELSVYTLTAITLERWHTITHAMQLDCKVQLRHAASVMVMGWIFAFAAALFPIFGISSYMKVSICLPMDIDSPLSQLYVMSLLVLNVLAFVVICGCYIHIYLTVRNPNIVSSSSDTRIAKRMAMLIFTDFLCMAPISFFAISASLKVPLITVSKAKILLVLFHPINSCANPFLYAIFTKNFRRDFFILLSKCGCYEMQAQIYRTETSSTVHNTHPRNGHCSSAPRVTSGSTYILVPLSHLAQN
notes: Control lane of the Rspo1-Fc pull-down
- binding result [8]: no binding (tested: ~1 µg/ml)
